# B1: Dkk-1 clone D4 (F1/R2: Asn34-Cys245) (ligand, not shown: large carriers)
# chain: NSVLNSNAIKNLPPPLGGAAGHPGSAVSAAPGILYPGGNKYQTIDNYQPYPCAEDEECGTDEYCASPTRGGDAGVQICLACRKRRKRCMRHAMCCPGNYCKNGICVSSDQNHFRGEIEETITESFGNDHSTLDGYSRRTTLSSKMYHTKGQEGSVCLRSSDCASGLCCARHFWSKICKPVLKEGQVCTKHRRKGSHGLEIFQRCYCGEGLSC
# B2: Dkk-1 clone D8 (F2/R2: Cys97-Cys245) (ligand, not shown: large carriers)
# chain: CASPTRGGDAGVQICLACRKRRKRCMRHAMCCPGNYCKNGICVSSDQNHFRGEIEETITESFGNDHSTLDGYSRRTTLSSKMYHTKGQEGSVCLRSSDCASGLCCARHFWSKICKPVLKEGQVCTKHRRKGSHGLEIFQRCYCGEGLSC
# B3: Dkk-1 clone D3 (F1/R1: Asn34-Lys182) (ligand, not shown: large carriers)
# chain: NSVLNSNAIKNLPPPLGGAAGHPGSAVSAAPGILYPGGNKYQTIDNYQPYPCAEDEECGTDEYCASPTRGGDAGVQICLACRKRRKRCMRHAMCCPGNYCKNGICVSSDQNHFRGEIEETITESFGNDHSTLDGYSRRTTLSSKMYHTK
# B4: Dkk-1 clone D11 (F3/R2: Val139-Cys245) (ligand, not shown: large carriers)
# chain: VSSDQNHFRGEIEETITESFGNDHSTLDGYSRRTTLSSKMYHTKGQEGSVCLRSSDCASGLCCARHFWSKICKPVLKEGQVCTKHRRKGSHGLEIFQRCYCGEGLSC
# B5: Dkk-1 clone isolated from the HOB03C5 osteoblast library (Gal4 activation domain fusion prey) (ligand, S. cerevisiae)
# chain: ANFNQSGNIADSSLSFTFTNSSNGPNLITTQTNSQALSQPIASSNVHDNFMNNEITASKIDDGNNSKPLSPGWTDQTAYNAFGITTGMFNTTTMDDVYNYLFDDEDTPPNPKKETLNSVLNSNAIKNLPPPLGGAAGHPGSAVSAAPGILYPGGNKYQTIDNYQPYPCAEDEECGTDEYCASPTRGGDAGVQICLACRKRRKRCMRHAMCCPGNYCKNGICVSSDQNHFRGEIEETITESFGNDHSTLDGYSRRTTLSSKMYHTKGQEGSVCLRSSDCASGLCCARHFWSKICKPVLKEGQVCTKHRRKGSHGLEIFQRCYCGEGLSCRIQKDHHQASNSSRLHTCQRH
# notes: also called Gal4AD-Dkk prey
# Molecular target: T1, Zmax1/LRP5 ligand binding domain bait LBD4 (Arg1070-Pro1376) (human, UniProt O75197 1070-1376)
# T1 construct: also called pDBleuLBD4; not shown: not described
# T1 sequence: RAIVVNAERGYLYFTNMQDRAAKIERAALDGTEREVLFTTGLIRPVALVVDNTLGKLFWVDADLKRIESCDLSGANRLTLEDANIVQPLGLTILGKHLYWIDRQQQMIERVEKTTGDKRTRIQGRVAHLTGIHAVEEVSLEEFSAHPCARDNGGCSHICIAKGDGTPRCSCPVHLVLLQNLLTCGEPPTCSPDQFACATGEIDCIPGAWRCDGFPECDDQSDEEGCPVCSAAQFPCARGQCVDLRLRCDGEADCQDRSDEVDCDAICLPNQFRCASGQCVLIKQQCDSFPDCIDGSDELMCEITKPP
# Assay: Y2H, growth on selective media
# From the text: (§1) These clones were transformed into yeast and mated with each of three yeast strains containing pDBleu (Gibco/BRL), pDBleuLBD1, and pDBleuLBD4. Positive interactions were detected by growth of the hybrids on appropriate selective media.
row,Binder,binding result
1,B1,binds
2,B2,binds
3,B3,no binding
4,B4,no binding

# Molecular target: T2, Zmax1/LRP5 ligand binding domain bait LBD1 (Leu969-Pro1376) (human, UniProt O75197 969-1376)
# T2 construct: also called pDBleuLBD1; not shown: not described
# T2 sequence: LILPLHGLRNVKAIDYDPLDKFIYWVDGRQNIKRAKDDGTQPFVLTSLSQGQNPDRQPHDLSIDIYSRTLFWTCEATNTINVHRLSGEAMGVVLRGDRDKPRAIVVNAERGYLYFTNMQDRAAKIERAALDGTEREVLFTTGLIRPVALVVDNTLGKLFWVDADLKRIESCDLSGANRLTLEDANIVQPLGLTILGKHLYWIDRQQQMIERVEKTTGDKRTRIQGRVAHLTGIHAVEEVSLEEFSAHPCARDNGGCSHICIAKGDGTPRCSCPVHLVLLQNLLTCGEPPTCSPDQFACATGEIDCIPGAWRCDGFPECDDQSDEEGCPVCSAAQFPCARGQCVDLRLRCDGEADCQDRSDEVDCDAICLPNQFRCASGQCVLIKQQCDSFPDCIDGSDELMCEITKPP
# Assay: Y2H, growth on selective media
# From the text: as §1
row,Binder,binding result
1,B1,binds
2,B2,binds
3,B3,no binding
4,B4,no binding

# Molecular target: T3, LRP5LBD-LexA bait (human, UniProt O75197 969-1376, limits assumed)
# T3 construct: Neither the limits of the LBD nor the order of the two parts is stated; also called LRP5 LBD fused with LexA; not shown: LexA
# T3 sequence: T2 sequence
# Assay: Y2H interaction trap, lacZ reporter under a single LexA operator
# From the text: For example, the Interaction Trap methodology can be used as follows.
row,Binder,fold activation of lacZ reporter over the background
1,B5,> 20 fold

# From US20070128187A1 (GENOME THERAPEUTICS, published 2007)
